Measured values published in article PMC9710872.

Target: SARS-CoV-2 spike (S) protein, unlabelled (ACROBiosystems) (SARS-CoV-2) (UniProt P0DTC2)
Assay: SPR

**Q.** With “recombinant NRP1 (ACROBiosystems), SPR analyte (from UniProt O14786) (natural protein)” as the substance, how does the Kd read?
**A.** 0.0894 µM
